Measured values reported in patent US20110263014A1, “Cleavage of Nanog by Caspases Mediates the Differentiation of Embryonic Stem Cells” (BAYLOR COLLEGE OF MEDICINE, priority 2008, published 2011).

Key:
caspase-9 = target: T1, caspase-9 (Homo sapiens, UniProt P55211); assay: cleavage of immunoprecipitated mNanog by recombinant caspase-9; format: biochemical; conditions: protein immunoprecipitated from ES cells
T1 sequence (P55211 1-416): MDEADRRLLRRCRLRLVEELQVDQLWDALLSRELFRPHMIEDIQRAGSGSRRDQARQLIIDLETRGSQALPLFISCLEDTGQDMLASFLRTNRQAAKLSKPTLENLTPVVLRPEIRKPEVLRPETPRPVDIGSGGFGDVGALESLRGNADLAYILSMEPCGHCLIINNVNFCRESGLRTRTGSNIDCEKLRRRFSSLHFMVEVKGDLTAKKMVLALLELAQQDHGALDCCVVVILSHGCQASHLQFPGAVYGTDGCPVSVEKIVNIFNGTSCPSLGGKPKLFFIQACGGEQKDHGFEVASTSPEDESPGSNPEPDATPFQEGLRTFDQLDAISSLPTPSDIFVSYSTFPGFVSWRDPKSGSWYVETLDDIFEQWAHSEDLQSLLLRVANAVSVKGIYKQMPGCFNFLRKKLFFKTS

mouse ES cells = assay: colony formation at clonal density, alkaline phosphatase staining; format: cell-based; conditions: transfected mouse ES cells, 5000 cells/cm^2, with or without LIF, 3 days

cleavage by caspase-9 (caspase-9): greatly diminished cleavage
B1: D67G mNanog: caspase cleavage-resistant mutant of mouse Nanog, mutation at position 67 (protein)
chain: MSVGLPGPHSLPSSEEASNSGNASSMPAVFHPENYSCLQGSATEMLCTEAASPRPSSEDLPLQGSPGSSTSPKQKLSSPEADKGPEEEENKVLARKQKMRTVFSQAQLCALKDRFQKQKYLSLQQMQELSSILNLSYKQVKTWFQNQRMKCKRWQKNQWLKTSNGLIQKGSAPVEYPSIHCSYPQGYLVNASGSLSMWGSQTWTNPTWSSQTWTNPTWNNQTWTNPTWSSQAWTAQSWNGQPWNAAPLHNFGEDFLQPYVQLQQNFSASDLEVNLEATRESHAHFSTPQALELFLNYSVTPPGEI
number of undifferentiated (AP-positive) colonies (mouse ES cells): substantially increased
